Earlier results in patent publication US20230279132A1, “TREATMENT OF B CELL MALIGNANCIES” (NOVARTIS AG, priority 2020, published 2023).

Tested on: DLBCL
Details: plus lenalidomide; relapsed or refractory DLBCL ineligible for transplants

B1: tafasitamab-cxix: FDA-approved with lenalidomide for relapsed or refractory DLBCL (antibody, chains of the INN, looked up)
heavy: EVQLVESGGGLVKPGGSLKLSCAASGYTFTSYVMHWVRQAPGKGLEWIGYINPYNDGTKYNEKFQGRVTISSDKSISTAYMELSSLRSEDTAMYYCARGTYYYGTRVFDYWGQGTLVTVSSASTKGPSVFPLAPSSKSTSGGTAALGCLVKDYFPEPVTVSWNSGALTSGVHTFPAVLQSSGLYSLSSVVTVPSSSLGTQTYICNVNHKPSNTKVDKKVEPKSCDKTHTCPPCPAPELLGGPDVFLFPPKPKDTLMISRTPEVTCVVVDVSHEDPEVQFNWYVDGVEVHNAKTKPREEQFNSTFRVVSVLTVVHQDWLNGKEYKCKVSNKALPAPEEKTISKTKGQPREPQVYTLPPSREEMTKNQVSLTCLVKGFYPSDIAVEWESNGQPENNYKTTPPMLDSDGSFFLYSKLTVDKSRWQQGNVFSCSVMHEALHNHYTQKSLSLSPG
light: DIVMTQSPATLSLSPGERATLSCRSSKSLQNVNGNTYLYWFQQKPGQSPQLLIYRMSNLNSGVPDRFSGSGSGTEFTLTISSLEPEDFAVYYCMQHLEYPITFGAGTKLEIKRTVAAPSVFIFPPSDEQLKSGTASVVCLLNNFYPREAKVQWKVDNALQSGNSQESVTEQDSKDSTYSLSSTLTLSKADYEKHKVYACEVTHQGLSSPVTKSFNRGEC
Q: Which CR does the source give for B1 here?
A: 37%

Q: And the ORR?
A: 55%
